Reference: US6897049B1, “Proteins producing an altered immunogenic response and methods of making and using the same” (Genencor International, Inc., priority 1998, dated 2005)
Residue numbers refer to the chain shown, from its start. In names and notes the source's numbering stands.

Columns and labels:
naïve human CD4+ T-cells = test: T-cell proliferation assay with differentiated dendritic cells and naïve human CD4+ T-cells (tritium incorporation); assay type: cell-based; settings: using the methods herein
Description: Fresh human peripheral blood cells were collected from “naïve” humans, i.e., persons not known to be exposed to or sensitized to Bacillus lentus protease, for determination of antigenic epitopes in protease from Bacillus lentus and human subtilisin. Naïve humans is intended to mean that the individual is not known to have been exposed to or developed a reaction to protease in the past. Peripheral mononuclear blood cells (stored at room temperature, no older than 24 hours) were prepared for use as follows: Approximately 30 mls of a solution of buffy coat preparation from one unit of whole blood was brought to 50 ml with Dulbecco's phosphate buffered solution (DPBS) and split into two tubes. […] The cell density of the resultant solution was measured by hemocytometer. Viability was measured by trypan blue exclusion.
From the resulting solution, a differentiated dendritic cell culture was prepared from the peripheral blood mononuclear cell sample having a density of 10^8 cells per 75 ml culture flask in a solution as follows: • (1) 50 ml of serum free AIM V media (Gibco) was supplemented with a 1:100 dilution beta-mercaptoethanol (Gibco). […] Adherent and non-adherent cells were then centrifuged at 600 G for 5 minutes, washed in DPBS and counted. • (4) The prepared dendritic cells were placed into a 96 well round bottom array at 2×10^4/well in 100 microliter total volume of AIM V media. […]

guinea pig splenocytes = test: T cell epitope mapping with splenocytes of immunized guinea pigs (thymidine incorporation); assay type: cell-based; settings: guinea pigs immunized with 20 μg subtilisin; 15-mer peptides at 5 μM; >10 animals
Description: B. lentis and B. amyloliquefaciens subtilisin T cell epitope mapping: Guinea pigs were immunized with 20 μg/immunization of subtilisin from either B. lentis or B. amyloliquefaciens. Animals were immunized subcutaneously in adjuvant every two weeks for 10 to 12 weeks. A single cell suspension of guinea pig splenocytes was created from each animal's spleen. Cells were plated at 5×10^5 splenocytes per well in round bottom 96 well plates. 15-mer peptides off-set by 3 amino acids were synthesized by Mimotopes. Peptides were resuspended to 1 mM in DMSO. Peptides were added to the cells at a final concentration of 5 μM. Cultures were incubated for 5 days at 37°, 5% CO2. Wells were pulsed with 0.5 μCi tritiated thymidine, and allowed to incubate for an additional 18 hours. Wells were harvested, and thymidine incorporation assessed.

Hartley guinea pigs = test: Guinea pig model of immunogenicity, antigen-specific IgG titers by direct ELISA; assay type: in vivo
Description: Guinea pig immunizations: Adult female Hartley guinea pigs were immunized with various doses of B. amyloliquefaciens subtilisin and GP002. The doses were 1, 5, 10, and 20 μg/dose. There were four animals for each dose. Animals were immunized subcutaneously with enzyme in Complete Freund's Adjuvant for the first immunization. All subsequent immunizations were performed in Incomplete Freund's adjuvant. Animals were immunized, and a serum sample taken, every two weeks.
ELISA: A direct ELISA was performed. Costart EIA plates were coated with 10 μg/ml of the immunizing enzyme in PBS overnight at 4° C. Plates were washed and blocked with 1% BSA in PBS. Serum samples were diluted in 1% BSA/PBS, and incubated on the enzymes coated plates for 1 hour. Serum samples were washed out, and biotinylated anti-guinea pig IgG was added at a 1:10,000 dilution in 1% BSA/PBS. The secondary reagent was incubated for 1 hour. The wells were washed, and avidin conjugated horse radish peroxidase was added to the wells at a 1:1000 dilution in 1% BSA/PBS. After 30 minutes, the substrate (ABTS) was added and the OD405 was read after 30 minutes.
Calculation of titers: Background was subtracted from the OD readings, and the results plotted for each individual guinea pig. […] The titer value was calculated from the linear regression equation for an OD=0.5. […]

[1] = system: HLA DR3/DQ2 transgenic mice; test: Immunization of HLA-DR3/DQ2/C2D transgenic mice, antigen-specific IgG by direct ELISA; assay type: in vivo; settings: 2 x 50 μg i.p.
Description: Adult male HLA-DR31DQ2/C2D mice were immunized with 50 μg of FNA or FNA Variant emulsified in Complete Freund's Adjuvant. The immunization was administered intraperitoneally. Two weeks later, the mice received another intraperitoneal immunization of 50 μg FNA or the Variant emulsified in Incomplete Freund's Adjuvant. One week later, the mice were bled via the retro-orbital route, and the serum collected. Serum was assessed for antigen-specific IgG antibodies in a direct ELISA protocol. Briefly, 96 well flat-bottomed EIA plates were coated overnight with 10 μg/ml of denatured FNA. Plates were washed, blocked with 1% Fetal Calf Serum, and serum was titered out at 1:10 dilutions. The serum was washed out of the wells, and antigen-specific IgG was detected with horse radish peroxidase conjugated anti-mouse IgG. Results are presented as serum dilution versus average optical density (×1000) in Table 1 and FIG. 21.

B1: proteinase K: Proteinase K from Tritirachium Album limber (protein, UniProt P06873 106-384, looked up)
Proteinase K: AAQTNAPWGLARISSTSPGTSTYYYDESAGQGSCVYVIDTGIEASHPEFEGRAQMVKTYYYSSRDGNGHGTHCAGTVGSRTYGVAKKTQLFGVKVLDDNGSGQYSTIIAGMDFVASDKNNRNCPKGVVASLSLGGGYSSSVNSAAARLQSSGVMVAVAAGNNNADARNYSPASEPSVCTVGASDRYDRRSSFSNYGSVLDIFGPGTSILSTWIGGSTRSISGTSMATPHVAGLAAYLMTLGKTTAASACRYIADTANKGDLSNIPFGTVNLLAYNNYQA
B1 was tested, and the “immunogenic response compared with other commercially available proteases” value (naïve human CD4+ T-cells) was “lower immunogenic response”.

B2: Bacillus amyloliquefaciens subtilisin: Bacillus amyloliquefaciens subtilisin (BPN′), SEQ ID NO: 3 (protein)
chain: AQSVPYGVSQIKAPALHSQGYTGSNVKVAVIDSGIDSSHPDLKVAGGASMVPSETNPFQDNNSHGTHVAGTVAALNNSIGVLGVAPSASLYAVKVLGADGSGQYSWIINGIEWAIANNMDVINMSLGGPSGSAALKAAVDKAVASGVVVVAAAGNEGTSGSSSTVGYPGKYPSVIAVGAVDSSNQRASFSSVGPELDVMAPGVSIQSTLPGNKYGAYNGTSMASPHVAGAAALILSKHPNWTNTQVRSSLENTTTKLGDSFYYGKGLINVQAAAQ
For B2, the “T cell epitopes found” value (guinea pig splenocytes) was “none” and the “immunogenicity in Hartley strain guinea pigs” value (Hartley guinea pigs) was “comparatively non-immunogenic”.

B3: FNA: BPN′ with a Y217L substitution; precursor of the variant (protein, UniProt P00782 108-382, looked up, variant Y217L)
Subtilisin BPN': B2 chain with Y217L
In the case of B3, the “average optical density (×1000), antigen-specific IgG” value (shortened to “average optical density”) ([1]; serum dilution 10) is reported as 2937.5, the “average optical density” value ([1]; serum dilution 100) is reported as 2476 and the “average optical density” value ([1]; serum dilution 1000) is reported as 1695. The “average optical density” value ([1]; serum dilution 10000) was 641.5, the “average optical density” value ([1]; serum dilution 100000) was 207 and the “average optical density” value ([1]; serum dilution 1000000) was 129.5. For the same molecule, the “average optical density” value ([1]; serum dilution 10000000) was 88.5.

B4: B. lentis subtilisin: subtilisin protease from Bacillus lentus (GG36), SEQ ID NO: 6 (protein)
chain: AQSVPWGISRVQAPAAHNRGLTGSGVKVAVLDTGISTHPDLNIRGGASFVPGEPSTQDGNGHGTHVAGTIAALNNSIGVLGVAPSAELYAVKVLGASGSGSVSSIAQGLEWAGNNGMHVANLSLGSPSPSATLEQAVNSATSRGVLVVAASGNSGAGSISYPARYANAMAVGATDQNNNRASFSQYGAGLDIVAPGVNVQSTYPGSTYASLNGTSMATPHVAGAAALVKQKNPSWSNVQIRNHLKNTATSLGSTNLYGSGLVNAEAATR
B4 was tested, and the “T cell epitopes found” value (guinea pig splenocytes) was “Two” and the “immunogenicity in Hartley strain guinea pigs” value (Hartley guinea pigs) was “highly immunogenic”.
